Values belong to the binder of their own block, whether it stands above or below them.
Key:
human IL-10 receptor [1] = target: T1, human IL-10 receptor (human, UniProt Q13651 22-578); experiment: Scatchard analysis of 125I-hIL-10 binding to Ba8.1 cells (Ba/F3 expressing hIL-10R), experiment shown
T1 construct: Expressed on transfected COS7 cells and Ba/F3 (Ba8.1) cells; The native IL-10 receptor on human cell lines (JY, TF-1, BJAB, Ramos, BH5) is written as this same molecule; also called hIL-10R; human IL-10 receptor component
T1 sequence: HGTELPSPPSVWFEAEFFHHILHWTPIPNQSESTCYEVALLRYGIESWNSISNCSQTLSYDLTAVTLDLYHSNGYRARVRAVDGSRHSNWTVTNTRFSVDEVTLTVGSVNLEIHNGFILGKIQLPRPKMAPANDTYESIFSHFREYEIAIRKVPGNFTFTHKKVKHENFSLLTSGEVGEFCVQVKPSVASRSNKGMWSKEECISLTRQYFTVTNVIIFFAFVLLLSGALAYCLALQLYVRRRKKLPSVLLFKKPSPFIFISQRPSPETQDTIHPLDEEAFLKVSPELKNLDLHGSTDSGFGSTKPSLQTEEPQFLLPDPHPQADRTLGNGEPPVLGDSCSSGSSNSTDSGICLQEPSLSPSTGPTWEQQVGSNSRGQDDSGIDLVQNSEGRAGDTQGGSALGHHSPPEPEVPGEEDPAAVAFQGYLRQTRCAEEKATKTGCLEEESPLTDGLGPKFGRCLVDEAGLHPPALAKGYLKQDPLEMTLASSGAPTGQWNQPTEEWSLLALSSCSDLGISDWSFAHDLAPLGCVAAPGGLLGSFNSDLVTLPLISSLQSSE
Excerpt: (§1) Values for Kd and receptor number were obtained by Scatchard analysis (23, 33, 34).

human IL-10 receptor [2] = target: T1, human IL-10 receptor; experiment: saturation binding of iodinated hIL-10 to COS7 cells transfected with human clone SW8.1, Scatchard plot
Description: (§2) Binding assays were performed. […] For FIGS. 16 and 17, the highest concentration was 1 nM. Background was determined by performing binding at 500-fold molar excess. Points represent averages of duplicates.

human IL-10 receptor [3] = target: T1, human IL-10 receptor; experiment: Scatchard analysis of 125I-hIL-10 binding to Ba8.1 cells, repeat experiments
Excerpt: as §1

mouse IL-10 receptor [4] = target: T2, mouse IL-10 receptor (mouse, UniProt Q61727 17-575); experiment: saturation binding of iodinated hIL-10 to MC/9 cells, Scatchard analysis (EBDA)
T2 construct: Expressed on transfected COS7 cells; the native receptor on mouse cell lines (MC/9, J774, WEHI 265.1) is written as this same molecule; also called mIL-10R; mouse IL-10 receptor component
T2 sequence: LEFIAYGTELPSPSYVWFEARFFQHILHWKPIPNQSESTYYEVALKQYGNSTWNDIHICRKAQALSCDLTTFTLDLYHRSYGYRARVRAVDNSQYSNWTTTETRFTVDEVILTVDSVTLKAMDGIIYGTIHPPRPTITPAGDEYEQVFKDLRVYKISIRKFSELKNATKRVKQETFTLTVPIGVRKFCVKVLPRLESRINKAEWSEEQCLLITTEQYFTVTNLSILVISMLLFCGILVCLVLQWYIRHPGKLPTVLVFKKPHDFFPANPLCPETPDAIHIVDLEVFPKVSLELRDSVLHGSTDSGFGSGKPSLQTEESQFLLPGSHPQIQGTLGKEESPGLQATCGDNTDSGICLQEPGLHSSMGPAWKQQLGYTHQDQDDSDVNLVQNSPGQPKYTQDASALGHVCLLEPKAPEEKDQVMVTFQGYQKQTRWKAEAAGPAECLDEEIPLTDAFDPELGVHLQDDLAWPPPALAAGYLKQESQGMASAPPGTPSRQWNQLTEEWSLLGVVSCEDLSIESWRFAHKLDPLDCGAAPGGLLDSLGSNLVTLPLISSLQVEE
Description: (§3) Scatchard analysis was performed on the data points obtained using the EBDA Program (Elsevier-Biosoft, Cambridge, U.K.). Antibody inhibition was performed under the above binding conditions but with the addition of a 100-fold molar excess of each of the indicated monoclonal antibodies. Cytokine specificity was determined under similar conditions but with the addition of 500-fold molar excess of the cytokines indicated.

[5] = target: IL-10 receptors on JY and MC/9 cells; experiment: saturation binding of iodinated hIL-10 to JY and MC/9 cells, several independent experiments
human IL-10 receptor [6] = target: T1, human IL-10 receptor; experiment: saturation binding of iodinated hIL-10 to JY cells, Scatchard analysis (EBDA)
Description: as §3

mouse IL-10 receptor [7] = target: T2, mouse IL-10 receptor; experiment: saturation binding of iodinated hIL-10 to COS7 cells transfected with mouse clone m3.14, Scatchard plot
Description: as §2

human IL-10 receptor [8] = target: T1, human IL-10 receptor; experiment: saturation binding of iodinated hIL-10 to JY cells, Scatchard analysis
Description: as §3

mouse IL-10 receptor [9] = target: T2, mouse IL-10 receptor; experiment: FACS competition against FLAG-mIL-10 on MC/9 and J774 cells

- Kd (human IL-10 receptor [1]): ~0.25 nM
- Kd (human IL-10 receptor [2]): 0.12 nM
- Kd (human IL-10 receptor [3]): 0.2 to 0.25 nM
- Kd (mouse IL-10 receptor [4]): 0.049 nM
- Kd [5]: 0.05 to 0.17 nM
- Kd (human IL-10 receptor [6]): 0.14 nM
- Kd (mouse IL-10 receptor [7]): 0.083 nM
- Kd (human IL-10 receptor [8]): ~0.15 nM
B1: human IL-10 (ligand, UniProt P22301 19-178, looked up)
chain: SPGQGTQSENSCTHFPGNLPNMLRDLRDAFSRVKTFFQMKDQLDNLLLKESLLEDFKGYLGCQALSEMIQFYLEEVMPQAENQDPDIKAHVNSLGENLKTLRLRLRRCHRFLPCENKSKAVEQVKNAFNKLQEKGIYKAMSEFDIFINYIEAYMTMKIRN
modifications: radioiodinated (125I, lactoperoxidase method) where used as labeled ligand; positions not given
notes: mature; Labeled and unlabeled hIL-10 are treated as one molecule; also called hIL-10; human interleukin-10

- binding result (mouse IL-10 receptor [9]): binds
B2: mouse IL-10 (ligand, UniProt P18893 19-178, looked up)
chain: SRGQYSREDNNCTHFPVGQSHMLLELRTAFSQVKTFFQTKDQLDNILLTDSLMQDFKGYLGCQALSEMIQFYLVEVMPQAEKHGPEIKEHLNSLGEKLKTLRMRLRRCHRFLPCENKSKAVEQVKSDFNKLQDQGVYKAMNEFDIFINCIEAYMMIKMKS
notes: mature; also called mIL-10; murine IL-10

From patent US6423500 (SCHERING, dated 2002)
